From patent US6994856 (Genentech, dated 2006)
gD epitope tag = herpes gD epitope tag left after the gD signal sequence; Fc (human IgG1) = Fc portion of human IgG1

T1: ErbB4.Fc (UniProt Q15303 26-651, limits assumed)
T1 construct: also called soluble form of ErbB4 receptor; immobilized soluble ErbB4 receptor; not shown: Fc part, not described; the protein was captured on the plate by goat anti-human antibody
T1 sequence (looked up): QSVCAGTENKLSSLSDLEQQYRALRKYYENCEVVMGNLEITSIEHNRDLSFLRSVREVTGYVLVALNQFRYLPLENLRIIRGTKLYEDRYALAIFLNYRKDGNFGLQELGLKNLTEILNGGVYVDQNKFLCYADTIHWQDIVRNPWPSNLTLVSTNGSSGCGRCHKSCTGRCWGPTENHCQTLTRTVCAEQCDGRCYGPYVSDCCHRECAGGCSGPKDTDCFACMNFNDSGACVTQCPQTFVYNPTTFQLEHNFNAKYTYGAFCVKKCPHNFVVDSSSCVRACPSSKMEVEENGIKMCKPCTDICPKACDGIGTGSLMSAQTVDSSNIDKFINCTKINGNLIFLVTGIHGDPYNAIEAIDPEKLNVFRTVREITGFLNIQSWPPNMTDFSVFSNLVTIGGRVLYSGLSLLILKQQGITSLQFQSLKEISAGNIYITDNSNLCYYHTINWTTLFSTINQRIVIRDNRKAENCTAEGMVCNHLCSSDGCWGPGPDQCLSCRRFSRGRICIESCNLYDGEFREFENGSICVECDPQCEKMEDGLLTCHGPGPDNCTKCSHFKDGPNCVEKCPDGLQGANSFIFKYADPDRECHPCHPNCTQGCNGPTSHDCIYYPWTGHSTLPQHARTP


What was measured:
ErbB4.Fc [1] = target: T1, ErbB4.Fc; experiment: displacement of 125I-NRG3^EGF.Fc from immobilized ErbB4.Fc by NRG1^EGF
ErbB4.Fc [2] = target: T1, ErbB4.Fc; experiment: displacement of 125I-NRG3^EGF.Fc from immobilized ErbB4.Fc by unlabeled NRG3^EGF.Fc
Description: The displacement binding assays were performed in Maxisorp C 96-wells (Nunc, Naperville, Ill.). Goat anti-human antibody (Boehringer Mannheim, Germany) was coated on the plate at a concentration of 0.2 µg/well in 100 µl of 50 mM sodium carbonate buffer (pH 9.6) at 4° C., overnight. The plate was blocked by 1% BSA in TBST buffer (25 mM Tris, pH 7.5, 150 mM NaCl, 0.02% Tween 20) for 30 min at room temperature (RT). A soluble form of ErbB4 receptor was added at 15 ng/well in 1% BSA/TBST and incubated for 1.5 hr at RT. To prevent radiolabeled protein from interacting with residual goat anti-human antibodies, 1 µM of a humanized monoclonal antibody (rhuMAB HER2; Carter, P. et al. (1992) *Proc. Natl. Acad. Sci. USA* 89:4285–9) was added to the plate for 20 min and was included in the subsequent binding reaction.
The unbound material was washed by TBST extensively, and the bound radioactivity was counted on a Beckman IsoData gamma-counter (Smith-Kline Beckman, Pa.). Data was analyzed using a nonlinear regression computer program.

[3] = target: T2, human ErbB2 receptor on cells (human, UniProt P04626 23-1255); experiment: FACS on K562^erbB2 cells
T2 construct: whole, on cells; also called HER2; K562^erbB2 cells
Description: (§1) In FIGS. 6A–6D, parental K562 cells (FIG. 6A) or K562 cells expressing either ErbB2 receptor (K562^erbB2 cells; FIG. 6B), ErbB3 receptor (K562^erbB3 cells; FIG. 6C) or ErbB4 receptor (K562^erbB4 cells; FIG. 6D) were examined for the expression of corresponding receptors. Cells were incubated with anti-ErbB2 receptor, anti-ErbB3 receptor or anti-ErbB4 receptor antibodies as indicated before PE-conjugated secondary antibody was added. "LOG PE" represents relative fluorescent intensity and "Counts" represents cell numbers. In FIGS. 6E–6H, NRG3^EGF.Fc is shown by FACS analysis to bind to ErbB4 receptor expressing cells. Parental K562 cells (FIG. 6E), K562^erbB2 cells (FIG. 6F), K562^erbB3 cells (FIG. 6G) and K562^erbB4 cells (FIG. 6H) were incubated with or without NRG3^EGF.Fc (containing gD tag) for 1 hour, followed by anti-gD-tag primary antibody and PE-conjugated secondary antibody.
(§2) C. FACS Analysis. For each binding reaction, 5×10^5 stably transfected K562 cells were suspended in PBS/2% BSA at 4° C. for 30 min followed by incubation with 5 µg of isolated, purified NRG3^EGF.Fc (MW 90 kDa) in a volume of 0.25 ml on ice for 60 min. 1 µg of primary antibody (anti-gD or anti-ErbB receptor) and secondary PE-conjugated (CALTAG, Calif., goat anti-mouse, 1:100 dilution) antibodies were added sequentially with 30–60 min incubation time and extensive washes before each addition. […]

[4] = target: T3, human ErbB3 receptor on cells (human, UniProt P21860 20-1342); experiment: FACS on K562^erbB3 cells
T3 construct: whole, on cells; also called HER3; K562^erbB3 cells
Description: as §1, §2

T3 sequence (P21860 20-1342): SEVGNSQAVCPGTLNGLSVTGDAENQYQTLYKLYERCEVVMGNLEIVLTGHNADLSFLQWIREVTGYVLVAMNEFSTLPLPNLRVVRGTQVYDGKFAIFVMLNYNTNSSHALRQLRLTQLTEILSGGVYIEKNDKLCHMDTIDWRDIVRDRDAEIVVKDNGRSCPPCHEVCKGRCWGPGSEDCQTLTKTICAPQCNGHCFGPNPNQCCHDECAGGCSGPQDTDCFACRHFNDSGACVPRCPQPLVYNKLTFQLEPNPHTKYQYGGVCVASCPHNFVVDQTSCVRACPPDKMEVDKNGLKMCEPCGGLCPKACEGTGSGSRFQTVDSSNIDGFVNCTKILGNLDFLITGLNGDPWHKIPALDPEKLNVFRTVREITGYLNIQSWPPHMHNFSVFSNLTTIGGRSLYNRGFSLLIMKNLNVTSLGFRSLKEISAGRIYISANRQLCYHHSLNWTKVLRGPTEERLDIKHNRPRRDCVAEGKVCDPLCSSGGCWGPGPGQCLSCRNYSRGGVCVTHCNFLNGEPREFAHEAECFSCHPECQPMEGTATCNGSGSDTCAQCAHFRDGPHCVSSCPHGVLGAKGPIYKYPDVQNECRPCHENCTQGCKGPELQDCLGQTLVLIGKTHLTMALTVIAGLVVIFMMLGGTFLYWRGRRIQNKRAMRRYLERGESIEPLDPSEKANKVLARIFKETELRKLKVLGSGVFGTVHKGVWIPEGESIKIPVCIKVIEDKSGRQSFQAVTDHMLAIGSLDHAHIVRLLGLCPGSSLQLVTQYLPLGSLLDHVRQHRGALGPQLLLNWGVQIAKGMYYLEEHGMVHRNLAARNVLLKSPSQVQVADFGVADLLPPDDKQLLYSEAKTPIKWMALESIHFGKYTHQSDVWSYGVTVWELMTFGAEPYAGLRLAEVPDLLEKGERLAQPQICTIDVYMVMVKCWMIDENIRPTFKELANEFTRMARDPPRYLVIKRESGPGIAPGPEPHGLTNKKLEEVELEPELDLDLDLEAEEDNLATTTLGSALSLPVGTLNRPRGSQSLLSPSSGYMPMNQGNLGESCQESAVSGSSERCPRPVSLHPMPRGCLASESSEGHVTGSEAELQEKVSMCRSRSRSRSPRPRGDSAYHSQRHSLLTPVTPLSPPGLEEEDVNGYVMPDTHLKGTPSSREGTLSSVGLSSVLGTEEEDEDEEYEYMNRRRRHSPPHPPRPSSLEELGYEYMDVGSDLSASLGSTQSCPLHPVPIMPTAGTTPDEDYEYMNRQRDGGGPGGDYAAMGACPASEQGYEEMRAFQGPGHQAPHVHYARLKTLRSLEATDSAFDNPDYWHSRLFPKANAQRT

Ki (ErbB4.Fc [1]) | Ki (ErbB4.Fc [2]) | Molecule | binding result [3] | binding result [4]
1 nM | – | NRG1^EGF (from UniProt Q02297 177-244) (ligand) | – | –
– | 9 nM | NRG3^EGF.Fc (Fc fusion, not fully specified, Secreted from CHO cells, purified on protein A; MW 90 kDa; also called NRG3-EGF-Fc fusion protein; not shown: Fc portion of human IgG1) {gD epitope tag}-ERSEHFKPCRDKDLAYCLNDGECFVIETLTGSHKHCRCKEGYQGVRCDQFLPKTDSILSDP-{Fc (human IgG1)} | no binding (tested: 5 µg in a volume of 0.25 ml) | no binding (tested: 5 µg in a volume of 0.25 ml)
